Measurements reported in patent publication US12637662B2, “Cells, islets, and organoids that evade immune detection and autoimmunity, methods of production and use thereof” (SALK INSTITUTE FOR BIOLOGICAL STUDIES, priority 2018, dated 2026).

Assays:
Format in all cases: cell-based, human
[1] = system: ERRγ (ESRRG), mitochondrial and insulin gene expression; assay: Quantitative RT-PCR gene expression in hiPSC-derived islet organoids/HILOs; conditions: hiPSC-derived islet organoids, MCS or HILOs
Procedure: hiPSCs were cultured in matrigel-coated plates. Single cell suspensions were prepared using Accutase, washed in PBS, and collected by centrifugation (1000-1300 rpm for 5 min). Cells were re-suspended with 3D Kelco Gel Stem TeSR™ Base Medium in the presence of the ROCK inhibitor (10 μM Y-27632, StemCell) for 5 to 7 days until spheroids reached 50-100 μm diameter. The medium was then replaced with 0.015% Kelco gel containing 0.3% methylcellulose and supplemented with 100 ng/ml human Activin A (R&D Systems), 3 μM CHIR99021 (Axon or Selleckchem) in differentiation medium (S1) for 1 day, and then 100 ng/ml human Activin in differentiation medium (S1) for another 2 days (Stage 1, Definitive Endoderm). Subsequently, the medium was replaced with differentiation medium (S2) with 50 ng/ml FGF7 (R&D Systems) for 2 days, differentiation medium (S3) with 50 ng/ml FGF7, 0.25 μM SANT-1 (Sigma), 1 μM Retinoic Acid (Sigma), 100 nM LDN193189, 10 μM Alk5 inhibitor II and 200 nM of the ß-Amyloid Precursor Protein modulator TPB for 3 days, then 50 ng/ml FGF7, 0.25 μM SANT-1 (Sigma), 1 μM Retinoic Acid (Sigma), 100 nM LDN193189, 10 μM Alk5 inhibitor II and 100 nM of the ß-Amyloid Precursor Protein modulator TPB for 2 days. Subsequently the medium was replaced with differentiation medium (S4) with 0.25 μM SANT-1, 50 nM retinoic acid, 100 nM LDN193189, 10 μM Alk5 inhibitor II, 1 μM T3 for 3 days. Subsequently, the medium was replaced with differentiation medium (S5) with 100 nM LDN193189, 100 nM […] inhibitor XX (GSiXX, Millipore), 10 μM Alk5 inhibitor IL, 1 μM T3 for 7 days. Subsequently, the medium was replaced with differentiation media (S5) with 10 μM Trolox (Calbiochem), 2 μM R428 (Selleckchem), 1 mM N-acetyl cysteine, 10 μM Alk5 inhibitor II, 1 μM T3 for an additional 7 to 20 days. […]
Total RNA was extracted using TRIzol reagent (Invitrogen) and RNeasy KIT (Qiagen). […] Real time quantitative RT-PCR (qPCR) was performed using SYBR Green (Bio-Rad).

wHILO cells = assay: Immunohistochemistry and flow cytometry of cell composition
Procedure: Secondary antibodies were coupled to Alexa 568, 647 (Life Technologies), and IHC staining was visualized by confocal microscopy (ZEISS) or fluorescence microscopy. Hoechst 33342 (Thermo Scientific, 62249, 1 μg/ml final concentration) was used for nuclear staining.
Clusters at indicated stages were dissociated with TrypLE (GIBCO) with 20 ug/ml DNase for 12 minutes at 37° C. and then were fixed with 4% PFA for 10 minutes at room temperature. Clusters were then permeabilized with 0.2% Triton X for 10 min, blocking with 10% goat serum for 30 min and stained for various intracellular markers with antibodies, c-peptide, (1/100, abcam, ab30477), PDX-1 (1/100, BD, 562161), NKX6-1 (1/100, BD, 563338), Chromogranin A (1/100, BD, 564583), MAFA (1/100, abcam, ab264583), MAFB (1/100, abcam, ab66506), Glucagon (1/100, abcam, ab82270), Somatostatin (1/100, abcam, 108456) for analysis on a BD Biosciences LSRII instrument. Data were analysed by FlowJo software. Secondary antibodies for c-peptide, Glucagon and Somatostatin were coupled to Alexa 647 (Life Technologies).

HILO transcriptome = assay: Bulk RNA-Seq transcriptional changes in HILOs; conditions: WNT4 100 ng/ml for days 26-33
Procedure: Total RNA was isolated from cell pellets treated with RNAlater (Invitrogen) using the RNeasy micro kit (Qiagen) and treated with DNaseI (Qiagen) for 30 minutes at room temperature. Sequencing libraries were prepared from 100-500 ng total RNA using the TruSeq RNA Sample Preparation Kit v2 (Illumina) according to the manufacturer's protocol. Briefly, mRNA was purified, fragmented, and used for first- and second-strand cDNA synthesis followed by adenylation of 3′ ends. Samples were ligated to unique adapters and PCR amplified. Libraries were then validated using the 2100 BioAnalyzer (Agilent), normalized and pooled for sequencing.
RNA-Seq libraries prepared from 3 biological replicates for each experimental condition were sequenced on the Illumina HiSeq 2500 using bar-coded multiplexing and a 100 bp read length. […] This yielded a median of 29.9M usable reads per sample. Short read sequences were mapped to a UCSC hg19 reference sequence using the RNA-Seq aligner STAR (A. Dobin et al., 2013, Bioinformatics, 29:15-21). […] Transcript expression was calculated as gene-level relative abundance in fragments per kilobase of exon model per million (fpkm) mapped fragments and employed correction for transcript abundance bias (A. Roberts et al., 2011, Bioinformatics, 27:2325-2329). […] Scale of heatmaps was determined by Z-score (FIG. 2A, FIG. 3D and FIG. 3G).

B1: WNT4: recombinant human Wnt4 protein (R&D Systems), non-canonical WNT maturation factor (protein, UniProt P56705 23-351, looked up)
Protein Wnt-4: SNWLYLAKLSSVGSISEEETCEKLKGLIQRQVQMCKRNLEVMDSVRRGAQLAIEECQYQFRNRRWNCSTLDSLPVFGKVVTQGTREAAFVYAISSAGVAFAVTRACSSGELEKCGCDRTVHGVSPQGFQWSGCSDNIAYGVAFSQSFVDVRERSKGASSSRALMNLHNNEAGRKAILTHMRVECKCHGVSGSCEVKTCWRAVPPFRQVGHALKEKFDGATEVEPRRVGSSRALVPRNAQFKPHTDEDLVYLEPSPDFCEQDMRSGVLGTRGRTCNKTSKAIDGCELLCCGRGFHTAQVELAERCSCKFHWCCFVKCRQCQRLVELHTCR
expression of ERRγ (ESRRG) and mitochondrial genes [1]: dose-dependently increased | expression of ERRγ (ESRRG) and mitochondrial genes ([1]; listed as rhWNT4): induced | cellular composition of HILOs (wHILO cells): not altered | number of genes with decreased expression (HILO transcriptome): 1354 genes | number of genes with increased expression (HILO transcriptome): 1581 genes
